Test results reported in article PMC11074293 (Nature Communications, 2024).

B1: KLHL22^1–178 (domain or fragment, human, UniProt Q53GT1 1-178, looked up)
chain: MAEEQEFTQLCKLPAQPSHPHCVNNTYRSAQHSQALLRGLLALRDSGILFDVVLVVEGRHIEAHRILLAASCDYFRGMFAGGLKEMEQEEVLIHGVSYNAMCQILHFIYTSELELSLSNVQETLVAACQLQIPEIIHFCCDFLMSWVDEENILDVYRLAELFDLSRLTEQLDTYILKN
notes: TEV site ENLYFQG: a residue of the site may be left at the N-terminus after cleavage; source: E. coli BL21(DE3), purified (Ni-IDA, SEC), His-MBP tag removed with TEV protease; not shown: His6, N-terminal, cleaved; MBP, N-terminal, cleaved
B2: KLHL22 (full length, N-terminal His6) (natural protein, human, UniProt Q53GT1 1-634, looked up)
chain: MAEEQEFTQLCKLPAQPSHPHCVNNTYRSAQHSQALLRGLLALRDSGILFDVVLVVEGRHIEAHRILLAASCDYFRGMFAGGLKEMEQEEVLIHGVSYNAMCQILHFIYTSELELSLSNVQETLVAACQLQIPEIIHFCCDFLMSWVDEENILDVYRLAELFDLSRLTEQLDTYILKNFVAFSRTDKYRQLPLEKVYSLLSSNRLEVSCETEVYEGALLYHYSLEQVQADQISLHEPPKLLETVRFPLMEAEVLQRLHDKLDPSPLRDTVASALMYHRNESLQPSLQSPQTELRSDFQCVVGFGGIHSTPSTVLSDQAKYLNPLLGEWKHFTASLAPRMSNQGIAVLNNFVYLIGGDNNVQGFRAESRCWRYDPRHNRWFQIQSLQQEHADLSVCVVGRYIYAVAGRDYHNDLNAVERYDPATNSWAYVAPLKREVYAHAGATLEGKMYITCGRRGEDYLKETHCYDPGSNTWHTLADGPVRRAWHGMATLLNKLYVIGGSNNDAGYRRDVHQVACYSCTSGQWSSVCPLPAGHGEPGIAVLDNRIYVLGGRSHNRGSRTGYVHIYDVEKDCWEEGPQLDNSISGLAACVLTLPRSLLLEPPRGTPDRSQADPDFASEVMSVSDWEEFDNSSED
notes: Kelch-like protein 22 (KLHL22), human, full length; Dimer in the cryo-EM structure of CRL3^KLHL22; also called His6-KLHL22
B3: KLHL12^1–161 (domain or fragment, human, UniProt Q53G59 1-161, looked up)
chain: MGGIMAPKDIMTNTHAKSILNSMNSLRKSNTLCDVTLRVEQKDFPAHRIVLAACSDYFCAMFTSELSEKGKPYVDIQGLTASTMEILLDFVYTETVHVTVENVQELLPAACLLQLKGVKQACCEFLESQLDPSNCLGIRDFAETHNCVDLMQAAEVFSQKH
notes: as for B1

Key:
[1] = molecular target: the molecule itself; assay: SEC-MALS; WTC-015S5 column, low salt buffer; complexes at 2 mg/ml, KLHL22^1–178 and KLHL12^1–161 alone at 3 mg/ml
CUL3^WT-RBX1 [2] = molecular target: T1, CUL3^WT-RBX1 (human, UniProt Q13618 1-768; P62877 1-108); assay: ITC; ITC200; CUL3-RBX1 (120 μM) in the syringe titrated into KLHL22^1–178 (10 μM) in the cell, 25 °C, one-site model; repeated with KLHL22^1–178 (120 μM) into CUL3-RBX1 (12 μM); conditions: both partners purified
T1 construct: Cullin-3 (CUL3), human, full length; also called CUL3-RBX1; (CUL3-His6)-RBX1; source: SF9 insect cells, co-expressed from pFastbac-dual, purified (Ni-IDA, SEC); copies: 1 + 1
T1 sequence (Q13618 whole entry, chain 1 of 2): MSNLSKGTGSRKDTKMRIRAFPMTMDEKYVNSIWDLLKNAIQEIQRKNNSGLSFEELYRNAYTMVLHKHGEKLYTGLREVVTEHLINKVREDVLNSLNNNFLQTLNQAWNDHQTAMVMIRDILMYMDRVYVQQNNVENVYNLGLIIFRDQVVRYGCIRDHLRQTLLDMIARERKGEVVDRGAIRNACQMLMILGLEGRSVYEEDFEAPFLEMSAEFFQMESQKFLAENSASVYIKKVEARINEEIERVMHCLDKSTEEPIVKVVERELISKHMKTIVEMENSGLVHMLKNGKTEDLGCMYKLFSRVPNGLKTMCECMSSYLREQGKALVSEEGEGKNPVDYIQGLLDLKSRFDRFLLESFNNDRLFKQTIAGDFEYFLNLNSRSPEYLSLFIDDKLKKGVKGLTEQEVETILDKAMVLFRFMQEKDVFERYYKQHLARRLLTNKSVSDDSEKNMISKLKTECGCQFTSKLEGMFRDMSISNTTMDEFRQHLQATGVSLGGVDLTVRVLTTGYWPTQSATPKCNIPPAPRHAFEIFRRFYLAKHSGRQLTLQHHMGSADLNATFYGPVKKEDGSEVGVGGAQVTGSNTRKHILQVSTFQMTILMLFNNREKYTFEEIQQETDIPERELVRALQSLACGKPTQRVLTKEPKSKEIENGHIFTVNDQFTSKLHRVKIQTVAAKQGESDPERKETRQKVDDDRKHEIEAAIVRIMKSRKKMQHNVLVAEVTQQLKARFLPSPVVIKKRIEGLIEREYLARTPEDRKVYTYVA
T1 sequence (P62877 whole entry, chain 2 of 2): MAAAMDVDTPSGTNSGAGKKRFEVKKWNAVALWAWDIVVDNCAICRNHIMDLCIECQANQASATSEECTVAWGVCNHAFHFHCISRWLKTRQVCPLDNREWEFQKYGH

CUL3^Δ1–13-RBX1 [3] = molecular target: T2, CUL3^Δ1–13-RBX1 (human, UniProt Q13618 14-768; P62877 1-108); assay: as above; conditions: both partners purified
T2 construct: Cullin-3 (CUL3), human, residues 1-13 deleted (partial deletion of the NA motif); RBX1, human, without a tag; source: purified; host stated only for wild-type CUL3-RBX1 (SF9); copies: 1 + 1
T2 sequence (Q13618 14-768, stated change not applied, chain 1 of 2): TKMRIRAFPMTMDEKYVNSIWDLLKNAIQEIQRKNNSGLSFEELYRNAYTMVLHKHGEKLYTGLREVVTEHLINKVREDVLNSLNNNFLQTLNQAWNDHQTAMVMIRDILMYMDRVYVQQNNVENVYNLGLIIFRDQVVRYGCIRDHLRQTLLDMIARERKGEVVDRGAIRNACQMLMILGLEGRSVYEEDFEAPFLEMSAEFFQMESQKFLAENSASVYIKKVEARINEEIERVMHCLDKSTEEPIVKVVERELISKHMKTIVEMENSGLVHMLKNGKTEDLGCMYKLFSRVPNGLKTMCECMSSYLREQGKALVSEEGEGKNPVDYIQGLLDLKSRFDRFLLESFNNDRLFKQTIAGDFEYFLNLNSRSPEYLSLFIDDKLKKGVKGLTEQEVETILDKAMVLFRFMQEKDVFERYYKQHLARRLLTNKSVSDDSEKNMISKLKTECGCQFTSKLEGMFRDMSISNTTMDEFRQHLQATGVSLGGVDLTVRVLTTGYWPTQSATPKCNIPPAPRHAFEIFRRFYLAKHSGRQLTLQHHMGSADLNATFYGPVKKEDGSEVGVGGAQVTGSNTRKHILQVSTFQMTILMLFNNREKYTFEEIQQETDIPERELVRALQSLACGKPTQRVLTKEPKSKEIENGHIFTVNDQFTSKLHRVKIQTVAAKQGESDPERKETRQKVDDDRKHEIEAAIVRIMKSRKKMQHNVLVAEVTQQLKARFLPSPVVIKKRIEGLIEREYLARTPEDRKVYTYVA
T2 sequence (P62877 whole entry, stated change not applied, chain 2 of 2, the tested form may be a part): as the sequence (P62877 whole entry, chain 2 of 2) above

CUL3^Δ1–24-RBX1 [4] = molecular target: T3, CUL3^Δ1–24-RBX1 (human, UniProt Q13618 25-768; P62877 1-108); assay: as above; conditions: both partners purified
T3 construct: Cullin-3 (CUL3), human, residues 1-24 (the whole NA motif) deleted; RBX1, human, without a tag; source: purified; host stated only for wild-type CUL3-RBX1 (SF9); copies: 1 + 1
T3 sequence (Q13618 25-768, stated change not applied, chain 1 of 2): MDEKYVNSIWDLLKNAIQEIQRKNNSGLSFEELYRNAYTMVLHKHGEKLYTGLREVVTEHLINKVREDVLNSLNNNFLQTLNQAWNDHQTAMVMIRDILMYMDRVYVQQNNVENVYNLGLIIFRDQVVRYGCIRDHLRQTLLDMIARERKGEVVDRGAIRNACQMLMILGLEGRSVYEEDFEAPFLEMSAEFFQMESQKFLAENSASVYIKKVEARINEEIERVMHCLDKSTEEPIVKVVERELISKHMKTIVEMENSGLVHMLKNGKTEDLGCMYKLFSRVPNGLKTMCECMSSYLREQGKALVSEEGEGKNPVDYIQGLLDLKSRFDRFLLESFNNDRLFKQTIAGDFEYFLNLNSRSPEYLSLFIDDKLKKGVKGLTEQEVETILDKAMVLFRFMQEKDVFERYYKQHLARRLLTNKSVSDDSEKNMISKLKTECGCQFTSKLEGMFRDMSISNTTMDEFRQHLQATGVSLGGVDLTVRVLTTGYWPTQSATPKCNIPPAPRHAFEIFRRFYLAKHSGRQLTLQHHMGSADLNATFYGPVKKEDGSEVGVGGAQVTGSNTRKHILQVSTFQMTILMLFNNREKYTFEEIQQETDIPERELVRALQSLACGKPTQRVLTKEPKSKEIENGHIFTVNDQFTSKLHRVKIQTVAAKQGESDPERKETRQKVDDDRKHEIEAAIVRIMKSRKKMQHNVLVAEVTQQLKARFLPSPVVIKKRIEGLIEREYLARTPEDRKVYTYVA
T3 sequence (P62877 whole entry, stated change not applied, chain 2 of 2, the tested form may be a part): as the sequence (P62877 whole entry, chain 2 of 2) above

[5] = molecular target: the molecule itself; assay: cryo-EM structure; full-length CUL3-RBX1-KLHL22 co-expressed in SF9, purified, GraFix (glutaraldehyde gradient); C2 symmetry, 3.8 Å overall, 3.3 Å for the dimer assembly region
CUL3^WT-RBX1 [6] = molecular target: T1, CUL3^WT-RBX1; assay: SEC; analytical SEC, Superdex 200 Increase 10/300 GL, 20 mM Tris-HCl pH 8.0, 150 mM NaCl, 1% glycerol, 1 mM TCEP; purified proteins mixed 1:1 (also 2:1 and 4:1 CUL3-RBX1 to BTB protein), 10 min on ice; conditions: both partners purified
CUL3^Δ1–13-RBX1 [7] = molecular target: T2, CUL3^Δ1–13-RBX1; assay: as above; conditions: both partners purified
CUL3^Δ1–24-RBX1 [8] = molecular target: T3, CUL3^Δ1–24-RBX1; assay: as above; conditions: both partners purified

| Binder | stoichiometry N [1] | Kd (CUL3^WT-RBX1 [2]) | Kd (CUL3^Δ1–13-RBX1 [3]) | Kd (CUL3^Δ1–24-RBX1 [4]) | binding result [5] | binding result (CUL3^WT-RBX1 [6]) | binding result (CUL3^Δ1–13-RBX1 [7]) | binding result (CUL3^Δ1–24-RBX1 [8]) |
| --- | --- | --- | --- | --- | --- | --- | --- | --- |
| B1 | 2 | ~27 nM | ~87 nM | ~383 nM |  |  |  |  |
| B2 |  |  |  |  | binds |  |  |  |
| B3 | 2 |  |  |  |  | binds | binds | binds |
